According to patent US20250197855A1 (ALNYLAM PHARMACEUTICALS, published 2025):

Key:
[1] = molecular target: T1, Aβ in APPPS1-21 mouse brain (from the human APP transgene bearing the Swedish mutation) (human (transgene in mouse), UniProt P05067 672-713); assay: proximity ligation assay (PLA) on APPPS1-21 mouse brain sections
T1 construct: also called methoxy-X04+ Aβ plaque

[2] = molecular target: T2, C1q (mouse, in APPPS1-21 and WT mouse brain cortex sections) (mouse, UniProt P98086 23-245; P14106 26-253; Q02105 30-246); assay: proximity ligation assay (Duolink PLA) on brain cortex sections of 16 weeks old APPPS1-21 mice
T2 construct: Endogenous tissue protein detected with mouse anti-C1q (HM1096BT, Hycult)
Description: Protein-protein binding ex vivo was performed by Duolink® PLA kit (DUO92101 SIGMA).
PLA signal was detected by Duolink® PLA kit according to manufacturer's protocol. Leica confocal microscope (SP8, Leica, Germany) equipped with a 100× oil objective (NA 1.4) were used for image. 6 fields per each sample were recorded, 3D reconstructions and the number of PLA signals per volume were performed using LAS-X software package (Leica, v1.2, Germany).
APPPS1-21 mice were treated with the liver-specific C5 siRNA AD-61679.

T1 sequence (P05067 672-713 limits assumed, change not shown): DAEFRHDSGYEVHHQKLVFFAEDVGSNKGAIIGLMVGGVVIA
T2 sequence (P98086 23-245 limits assumed, chain 1 of 3): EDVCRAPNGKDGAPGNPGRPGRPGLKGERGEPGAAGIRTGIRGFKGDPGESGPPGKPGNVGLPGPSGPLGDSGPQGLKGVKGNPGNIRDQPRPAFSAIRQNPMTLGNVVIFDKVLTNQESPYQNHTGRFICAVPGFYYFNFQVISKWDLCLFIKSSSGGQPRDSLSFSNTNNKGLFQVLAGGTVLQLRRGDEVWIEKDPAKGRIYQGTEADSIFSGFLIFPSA
T2 sequence (P14106 26-253 limits assumed, chain 2 of 3): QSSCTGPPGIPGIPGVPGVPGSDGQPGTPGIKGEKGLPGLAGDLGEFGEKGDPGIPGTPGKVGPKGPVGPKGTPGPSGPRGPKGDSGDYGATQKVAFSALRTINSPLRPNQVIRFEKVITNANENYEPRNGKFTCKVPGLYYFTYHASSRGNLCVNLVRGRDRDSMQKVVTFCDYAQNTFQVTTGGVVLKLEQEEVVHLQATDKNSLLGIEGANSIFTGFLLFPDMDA
T2 sequence (Q02105 30-246 limits assumed, chain 3 of 3): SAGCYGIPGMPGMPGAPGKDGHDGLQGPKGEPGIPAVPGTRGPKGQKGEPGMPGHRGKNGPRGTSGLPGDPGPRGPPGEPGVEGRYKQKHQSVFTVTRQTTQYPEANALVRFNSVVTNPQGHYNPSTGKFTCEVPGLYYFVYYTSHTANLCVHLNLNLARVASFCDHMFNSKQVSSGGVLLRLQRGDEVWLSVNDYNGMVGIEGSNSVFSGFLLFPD

- binding result [1]: binds
- binding result [2]: binds
B1: apolipoprotein E (mouse, in APPPS1-21 and WT mouse brain cortex sections) (other, UniProt P08226 19-311, looked up)
chain: EGEPEVTDQLEWQSNQPWEQALNRFWDYLRWVQTLSDQVQEELQSSQVTQELTALMEDTMTEVKAYKKELEEQLGPVAEETRARLGKEVQAAQARLGADMEDLRNRLGQYRNEVHTMLGQSTEEIRARLSTHLRKMRKRLMRDAEDLQKRLAVYKAGAREGAERGVSAIRERLGPLVEQGRQRTANLGAGAAQPLRDRAQAFGDRIRGRLEEVGNQARDRLEEVREHMEEVRSKMEEQTQQIRLQAEIFQARLKGWFEPIVEDMHRQWANLMEKIQASVATNPIITPVAQENQ
notes: Detected with rabbit anti-mouse ApoE (ab183597); also called ApoE
